Test results: patent US9657081B2, “Inhibiting peptides derived from triggering receptor expressed on myeloid cells-1 (TREM-1) TREM-like transcript 1 (TLT-1) for treatment of cardiovascular diseases” (INSERM (Institut National de la Sante et de la Recherche …, priority 2013, dated 2017)

Experiments:
TREM-1 [1] = biological target: T1, TREM-1 (Mus musculus, UniProt Q9JKE2); assay: Atherosclerosis in ApoE-/- mouse on fat diet; type: in vivo; conditions: apoE-/- mice, daily i.p. 100 μg/day, 4 weeks; vehicle 146736
T1 construct: endogenous in cells; host or cells: living mice (C57BL, Balb/c, ApoE-/-), in vivo
T1 sequence (Q9JKE2 21-230): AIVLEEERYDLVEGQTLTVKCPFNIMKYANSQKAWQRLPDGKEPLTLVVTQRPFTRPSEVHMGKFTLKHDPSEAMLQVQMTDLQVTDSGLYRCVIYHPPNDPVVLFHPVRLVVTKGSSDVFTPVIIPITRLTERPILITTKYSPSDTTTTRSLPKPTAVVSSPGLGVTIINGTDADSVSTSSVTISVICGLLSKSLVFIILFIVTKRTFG
Procedure: 12-week old male ApoE−/− mice were put on a fat diet (lipids 15%, cholesterol 1.25%, no cholate) and were treated by daily intraperitoneal injection of peptides (100 μg/day) or PBS. After 4 weeks of fat diet, mice were sacrificed for analysis.
Atherosclerotic plaques were stained using Red Oil and quantified in the aortic sinus. Using immunofluorescent staining and immunohistochemistry, we analyzed plaque composition. Finally, we explored the effects of peptide's treatment on monocyte recruitment in the atherosclerotic plaques using the pulse staining technique developed by Potteaux et al. Briefly, monocytes were labelled in vivo by retro-orbital i.v. injection of 1 μm Fluoresbrite green fluorescent plain microspheres diluted 1:4 in sterile PBS [Potteaux et al, 2011]. Fluorescent beads count in the lesions reflects monocyte recruitment.

TREM-1 [2] = biological target: T2, TREM-1 (Sus scrofa, UniProt Q6TYI6); assay: Mini-pig model of sepsis (peritonitis): sepsis-induced hypotension and cardiac dysfunction; type: in vivo, mini-pig (Sus scrofa domestica)
T2 construct: endogenous in cells; host or cells: living mini-pigs (in vivo)
T2 sequence (Q6TYI6 21-238): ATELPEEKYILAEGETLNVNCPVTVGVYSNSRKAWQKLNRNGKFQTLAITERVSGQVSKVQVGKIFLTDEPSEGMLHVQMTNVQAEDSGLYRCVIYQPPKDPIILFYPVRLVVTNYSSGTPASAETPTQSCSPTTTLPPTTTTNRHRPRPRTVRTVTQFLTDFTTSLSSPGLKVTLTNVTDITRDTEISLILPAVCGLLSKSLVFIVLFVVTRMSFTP
Procedure: Adult male mini-pigs (Sus scrofa domestica, Vietnamese pot-belied mini-pigs, 30-40 kg) were purchased from Elevage Ferry (Vosges, France). Before surgery, animals were fasted overnight with free access to water. Preanesthesia was performed through intramuscular administration of ketamine (10 mg/kg) and midazolam (0.1 mg/kg). Anesthesia was induced and maintained with intravenous pentobarbital (initial bolus: 10 mg/kg, and continuous administration 6-8 mg/kg/h), intermittent sufentanyl (10 μg), and pancuronium (4 mg) if necessary. Animals were mechanically ventilated (tidal volume 8 ml/kg, PEEP 5 cm H2O, FiO2 0.21, respiratory rate 14-16 breaths/min adjusted to maintain normocapnia). Left jugular vein was exposed and a triple-lumen line was inserted. Right jugular vein was also catheterized and a Swan-Ganz catheter was positioned allowing the continuous recording of cardiac output, SvO2, and right atria and pulmonary arterial pressures. A right carotid arterial catheter was inserted for continuous measurement of arterial pressure. A catheter in the bladder allowed urine collection.
After instrumentation, a midline laparotomy was performed to collect feces from the left colon: 1.5 g/kg were suspended in 200 mL of 0.9% NaCl and incubated at 38° C. for 2 hours. After surgery, a tube was left in place for the peritonitis induction and ascites drainage.
After surgery, animals were allowed to recover for 2 hours before baseline measurements (defined as ‘H0’). Normal saline was continuously administered (10 mL/kg/h) throughout the study. Body temperature was kept constant (±1° C.) using heating pads or cooling.
After baseline data collection (H0), peritonitis was induced by administration of autologous feces through the abdominal tube which was subsequently maintained clamped. After 2 hours (H2), animals were randomized to receive LR12 (LR12 group, n=6) or the vehicle (normal saline) alone (Control group, n=5). A bolus of 5 mg/kg (in 60 mL) was intravenously delivered over 30 minutes, then a 1 mg/kg/h (15 mL/h) infusion was started and lasted throughout the study period.
Animal care was then provided by an experienced intensive care physician with strict adhesion to the following guidelines throughout the study period:
i) Hemodynamic targets: the main objective was to maintain mean arterial pressure (MAP) above 85 mmHg. To achieve this goal and in addition to the maintenance 0.9% NaCl administration (7 mL/kg/h), hydroxyethyl starch (up to 20 mL/kg for the entire study period) (HES 130/0.4, Voluven®, Fresenius) was allowed provided that central venous pressure (CVP) and pulmonary artery occlusion pressure (PAOP) was <18 mmHg. When hydroxyethyl starch maximal volume was reached, a continuous infusion of norepinephrine was started up to 10 μg/kg/min.
Hemodynamic parameters were continuously monitored including MAP, mean pulmonary artery pressure (MPAP), right atrial pressure (RAP), cardiac output (CO), cardiac index (CI), and SvO2. Systemic oxygen delivery (DO2) and systemic oxygen uptake (VO2) were calculated by the Swan-Ganz monitor. Cardiac Power Index (W/m^2) was calculated as MAP×CI/451 (24).

LQEEDAGEYGCM (listed as Homo sapiens) [TLT1-LR12]
atherosclerotic lesion size in the aortic sinus (Red Oil staining) (TREM-1 [1]): 103318 μm^2 | animals in which norepinephrine was started by H12 to maintain MAP >85 mmHg (TREM-1 [2]; mini-pig peritonitis): 1/6 | volume rescucitation (TREM-1 [2]; mini-pig peritonitis, 5 mg/kg bolus then 1 mg/kg/h i.v.): 6500 ± 800 mL | progressive lactic acidosis (TREM-1 [2]; p=0.0005): largely attenuated | cardiac failure (cardiac index, cardiac power index, SvO2, DO2) (TREM-1 [2]; versus controls): significant beneficial effects in attenuating cardiac failure | norepinephrine infusion rate needed to maintain blood pressure (TREM-1 [2]; versus controls): significantly lower
